Test results reported in PMC7177239, “Transitional States in Ligand-Dependent Transformation of the Aryl Hydrocarbon Receptor into Its DNA-Binding Form” (International Journal of Molecular Sciences, 2020).
Positions count from the first letter of the chain named. Values belong to the molecule of their own block, whether it stands above or below them.

Tests used:
[1] = target: heat shock protein 90 (rabbit (endogenous in reticulocyte lysate)) (UniProt P30946)
AhRdPASB;ARNT = experiment: EMSA; conditions: MEDG (25 mM MOPS pH 7.5, 1 mM EDTA, 1 mM DTT, 10% glycerol), 150 mM KCl (no added KCl for AhRdPASB and AhR/PASB-ARNT), AhR:ARNT:buffer 1:1:8, 10 nM TCDD or 1% …
AhR F281A;ARNT = experiment: EMSA; conditions: MEDG (25 mM MOPS pH 7.5, 1 mM EDTA, 1 mM DTT, 10% glycerol), 150 mM KCl (no added KCl for AhRdPASB and AhR/PASB-ARNT), AhR:ARNT:buffer 1:1:8, 10 nM TCDD or 1% …
AhR D371A;ARNT = experiment: EMSA; conditions: MEDG (25 mM MOPS pH 7.5, 1 mM EDTA, 1 mM DTT, 10% glycerol), 150 mM KCl (no added KCl for AhRdPASB and AhR/PASB-ARNT), AhR:ARNT:buffer 1:1:8, 10 nM TCDD or 1% …
AhR A375V;ARNT = experiment: EMSA; conditions: MEDG (25 mM MOPS pH 7.5, 1 mM EDTA, 1 mM DTT, 10% glycerol), 150 mM KCl (no added KCl for AhRdPASB and AhR/PASB-ARNT), AhR:ARNT:buffer 1:1:8, 10 nM TCDD or 1% …
AhR R217A;ARNT = experiment: EMSA; conditions: MEDG (25 mM MOPS pH 7.5, 1 mM EDTA, 1 mM DTT, 10% glycerol), 150 mM KCl (no added KCl for AhRdPASB and AhR/PASB-ARNT), AhR:ARNT:buffer 1:1:8, 10 nM TCDD or 1% …
wtAhR;ARNT = experiment: EMSA; conditions: MEDG (25 mM MOPS pH 7.5, 1 mM EDTA, 1 mM DTT, 10% glycerol), 150 mM KCl (no added KCl for AhRdPASB and AhR/PASB-ARNT), AhR:ARNT:buffer 1:1:8, 10 nM TCDD or 1% …
AhR/PASB-ARNT;ARNT = experiment: EMSA; conditions: MEDG (25 mM MOPS pH 7.5, 1 mM EDTA, 1 mM DTT, 10% glycerol), 150 mM KCl (no added KCl for AhRdPASB and AhR/PASB-ARNT), AhR:ARNT:buffer 1:1:8, 10 nM TCDD or 1% …
[2] = target: T1, aryl hydrocarbon receptor (AhR) (Mus musculus, UniProt P30561, D371A); experiment: [3H]TCDD saturation binding, hydroxyapatite assay
T1 construct: mutant of mβAhR/pcDNA3, synthesized in vitro in rabbit reticulocyte lysate
T1 sequence (P30561 10-848 D371A): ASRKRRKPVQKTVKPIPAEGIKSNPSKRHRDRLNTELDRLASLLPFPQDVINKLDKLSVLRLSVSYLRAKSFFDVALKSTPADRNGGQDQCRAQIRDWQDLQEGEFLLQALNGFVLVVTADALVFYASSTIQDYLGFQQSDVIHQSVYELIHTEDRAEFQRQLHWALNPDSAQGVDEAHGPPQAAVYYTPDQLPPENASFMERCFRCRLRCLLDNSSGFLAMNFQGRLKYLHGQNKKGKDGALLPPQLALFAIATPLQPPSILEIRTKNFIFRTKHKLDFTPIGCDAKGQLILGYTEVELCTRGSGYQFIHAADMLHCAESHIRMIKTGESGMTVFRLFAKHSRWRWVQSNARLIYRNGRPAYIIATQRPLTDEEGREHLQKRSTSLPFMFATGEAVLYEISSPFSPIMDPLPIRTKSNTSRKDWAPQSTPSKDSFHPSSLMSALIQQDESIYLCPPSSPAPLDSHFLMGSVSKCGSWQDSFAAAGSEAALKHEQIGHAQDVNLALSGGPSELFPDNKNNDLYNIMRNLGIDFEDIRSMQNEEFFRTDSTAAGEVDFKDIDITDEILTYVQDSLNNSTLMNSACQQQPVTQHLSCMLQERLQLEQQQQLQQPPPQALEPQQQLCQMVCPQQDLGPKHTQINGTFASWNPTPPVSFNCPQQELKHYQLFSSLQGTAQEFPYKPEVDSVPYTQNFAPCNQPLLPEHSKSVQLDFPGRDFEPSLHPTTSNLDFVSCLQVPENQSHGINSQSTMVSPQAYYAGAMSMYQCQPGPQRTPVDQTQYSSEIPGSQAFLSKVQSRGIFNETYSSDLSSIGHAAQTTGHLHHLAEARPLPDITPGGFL

[3] = target: T2, aryl hydrocarbon receptor (AhR), wild type (Mus musculus, UniProt P30561); experiment: [3H]TCDD saturation binding, hydroxyapatite assay
T2 construct: wtAhR (mβAhR/pcDNA3), synthesized in vitro in rabbit reticulocyte lysate
T2 sequence (P30561 10-848): T1 sequence (P30561 10-848 D371A) with A362D

Sequence of AhRdPASB (P30561 whole entry): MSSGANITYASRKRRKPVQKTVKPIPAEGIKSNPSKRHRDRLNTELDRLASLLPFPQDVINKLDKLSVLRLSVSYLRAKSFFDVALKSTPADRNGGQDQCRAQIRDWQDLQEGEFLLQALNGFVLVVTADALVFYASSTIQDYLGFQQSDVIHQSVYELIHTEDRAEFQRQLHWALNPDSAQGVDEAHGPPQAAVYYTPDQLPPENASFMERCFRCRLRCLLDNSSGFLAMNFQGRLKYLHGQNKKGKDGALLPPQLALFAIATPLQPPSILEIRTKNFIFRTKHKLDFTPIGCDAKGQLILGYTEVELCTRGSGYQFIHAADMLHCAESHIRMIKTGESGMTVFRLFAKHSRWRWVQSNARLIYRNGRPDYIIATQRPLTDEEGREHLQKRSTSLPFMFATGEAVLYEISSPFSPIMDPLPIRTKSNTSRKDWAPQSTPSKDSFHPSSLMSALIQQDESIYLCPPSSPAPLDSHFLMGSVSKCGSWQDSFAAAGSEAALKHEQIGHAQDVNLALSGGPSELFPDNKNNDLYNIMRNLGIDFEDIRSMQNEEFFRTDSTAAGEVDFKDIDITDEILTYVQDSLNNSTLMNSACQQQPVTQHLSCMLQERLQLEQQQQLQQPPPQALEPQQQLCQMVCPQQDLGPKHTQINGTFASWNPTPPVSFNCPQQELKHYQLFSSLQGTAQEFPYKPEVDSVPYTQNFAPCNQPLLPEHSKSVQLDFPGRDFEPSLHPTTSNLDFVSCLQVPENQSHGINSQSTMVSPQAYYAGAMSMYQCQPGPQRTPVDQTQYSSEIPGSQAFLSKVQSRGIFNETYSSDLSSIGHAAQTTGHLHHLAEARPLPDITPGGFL
Sequence of wild type aryl hydrocarbon receptor (mouse) (P30561 whole entry): as above

Molecule: DRE3
binding signal (% inhibition by molybdate) (AhRdPASB;ARNT): 4.3
binding signal (% inhibition by molybdate) (AhR F281A;ARNT): 5
binding signal (% inhibition by molybdate) (AhR D371A;ARNT): 61.7
binding signal (% of wt DNA binding) (AhR A375V;ARNT): 55
binding signal (% inhibition by molybdate) (AhR R217A;ARNT): 67.1
binding signal (% DNA binding (reference)) (wtAhR;ARNT): 100
binding signal (% inhibition by molybdate) (wtAhR;ARNT): 69.6
binding signal (% inhibition by molybdate) (AhR/PASB-ARNT;ARNT): 9.1

Molecule: Clc1cc2c(cc1Cl)Oc1cc(Cl)c(Cl)cc1O2 [TCDD, 2,3,7,8-tetrachlorodibenzo-p-dioxin]
Kd [2]: 5 ± 0.4 nM
Kd [3]: 4.6 ± 0.3 nM

Molecule: AhR F281A (from UniProt P30561 1-848) (natural protein)
percent inhibition by 20 mM sodium molybdate of constitutive AhR transformation/DNA binding in vitro (gel retardation) [1]: 5%

Further lines, results first:

percent inhibition by sodium molybdate (up to 20 mM) of TCDD-dependent AhR transformation/DNA binding in vitro (gel retardation) [1]: 69.6%
Molecule: wild type aryl hydrocarbon receptor (mouse) (from UniProt P30561 1-848) (natural protein)

percent inhibition by sodium molybdate of constitutive AhR transformation/DNA binding in vitro (gel retardation) [1]: 4.3%
Molecule: AhRdPASB (from UniProt P30561 1-848) (natural protein)

percent inhibition by sodium molybdate of constitutive AhR transformation/DNA binding in vitro (gel retardation) [1]: 9.1%
Molecule: AhR/PASB-ARNT
